Here are results for 47 variants from the Human Domainome abundance scans (Beltran et al. 2025).

Sequences and labels used below:
B1: Zinc finger homeobox protein 3, residues 2244 to 2299; numbered along this chain, Q15911 (parent)
chain: SSRTRFTDYQLRVLQDFFDANAYPKDDEFEQLSNLLNLPTRVIVVWFQNARQKARK
B2: Bromodomain adjacent to zinc finger domain protein 2B, residues 1927 to 1982; numbered along this chain, Q9UIF8 (parent)
chain: KSIMKVYCQICRKGDNEELLLLCDGCDKGCHTYCHRPKITTIPDGDWFCPACIAKA

± gives the uncertainty stated by the source.

The variants in one series derive from B1. Briefly: abundance fitness (aPCA) (normalised: wild type 0, dead -1); higher = more abundant; growth selection in yeast, the domain comes from the species named. Conditions: Homo sapiens.
For the variant SSRTRFTDYQLFVLQDFFDANAYPKDDEFEQLSNLLNLPTRVIVVWFQNARQKARK [R12F], the abundance fitness is -0.738 ± 0.087.
Turning to SSFTRFTDYQLRVLQDFFDANAYPKDDEFEQLSNLLNLPTRVIVVWFQNARQKARK [R3F], the abundance fitness was determined as 0.387 ± 0.18.
On the same count and under the same terms, then SSYTRFTDYQLRVLQDFFDANAYPKDDEFEQLSNLLNLPTRVIVVWFQNARQKARK [R3Y], with 0.301 ± 0.19; and SSETRFTDYQLRVLQDFFDANAYPKDDEFEQLSNLLNLPTRVIVVWFQNARQKARK [R3E], with 0.038 ± 0.11; and WSRTRFTDYQLRVLQDFFDANAYPKDDEFEQLSNLLNLPTRVIVVWFQNARQKARK [S1W], with -0.939 ± 0.21.
For the variant LSRTRFTDYQLRVLQDFFDANAYPKDDEFEQLSNLLNLPTRVIVVWFQNARQKARK [S1L], the abundance fitness is -0.179 ± 0.16.
With SSRTRFTDYQLRVLQDFGDANAYPKDDEFEQLSNLLNLPTRVIVVWFQNARQKARK [F18G], the abundance fitness was -0.984 ± 0.11.
The same measure, in the same setting: then SSRTRFTDYQLRVLQDFTDANAYPKDDEFEQLSNLLNLPTRVIVVWFQNARQKARK [F18T], with -0.772 ± 0.14; and SSRTRFTDYQLRVLQDFFDANAYPKDDEFEQLSTLLNLPTRVIVVWFQNARQKARK [N34T], with -0.145 ± 0.2.
Turning to SSRTRFTDYQLRVLQDFFDANAYPKDDEFEQLSLLLNLPTRVIVVWFQNARQKARK [N34L], the abundance fitness was -0.17 ± 0.15.
The same measure, in the same setting: in the case of SSRTRFTDYQLRVLQDFFDANAYPKDDEFEQLSSLLNLPTRVIVVWFQNARQKARK [N34S] it was 0.066 ± 0.16.
On to SSRTRFTHYQLRVLQDFFDANAYPKDDEFEQLSNLLNLPTRVIVVWFQNARQKARK [D8H], for which the abundance fitness is -0.269 ± 0.33.
Still for that read-out and setting: in the case of SSRTRFTFYQLRVLQDFFDANAYPKDDEFEQLSNLLNLPTRVIVVWFQNARQKARK [D8F] it was -0.591 ± 0.24; in that of SSRTRFTDYQLRVLQWFFDANAYPKDDEFEQLSNLLNLPTRVIVVWFQNARQKARK [D16W], -0.714 ± 0.12.
Still for that read-out and setting: then SSRTRPTDYQLRVLQDFFDANAYPKDDEFEQLSNLLNLPTRVIVVWFQNARQKARK [F6P], with -0.774 ± 0.091; and SSRTRVTDYQLRVLQDFFDANAYPKDDEFEQLSNLLNLPTRVIVVWFQNARQKARK [F6V], with -0.21 ± 0.077.
Same read-out and setting: in the case of SSRTRFTDYQLRVLQDFFDANNYPKDDEFEQLSNLLNLPTRVIVVWFQNARQKARK [A22N] it was -0.024 ± 0.081; in that of SSRTRFTDYQLRVLQDFFDANDYPKDDEFEQLSNLLNLPTRVIVVWFQNARQKARK [A22D], 0.219 ± 0.093; in that of SSRTRFTDYQLRVLQDFFDANVYPKDDEFEQLSNLLNLPTRVIVVWFQNARQKARK [A22V], -0.14 ± 0.071.
SSRTRFTDYQLRVLQDFFDANAYPKDKEFEQLSNLLNLPTRVIVVWFQNARQKARK [D27K]: the abundance fitness was -0.113 ± 0.1.
Take SSRTRFTDYQLRVLQDFFDANAYPKDYEFEQLSNLLNLPTRVIVVWFQNARQKARK [D27Y]: the abundance fitness is -0.16 ± 0.13.
Same read-out and setting: in the case of SGRTRFTDYQLRVLQDFFDANAYPKDDEFEQLSNLLNLPTRVIVVWFQNARQKARK [S2G] it was -0.006 ± 0.093; in that of SDRTRFTDYQLRVLQDFFDANAYPKDDEFEQLSNLLNLPTRVIVVWFQNARQKARK [S2D], 0.21 ± 0.11.
The same measure, in the same setting: then SSRTRFTDYQLRVLQDFFDANAYPKDDEFEQLSNLLNLPTRVITVWFQNARQKARK [V44T], with -0.056 ± 0.15.
The same measure, in the same setting: in the case of SSRTRFTDYQLRVGQDFFDANAYPKDDEFEQLSNLLNLPTRVIVVWFQNARQKARK [L14G] it was -0.931 ± 0.095; in that of SSRTRFTDYQLRVEQDFFDANAYPKDDEFEQLSNLLNLPTRVIVVWFQNARQKARK [L14E], -0.807 ± 0.12.
SSRTRFTDYQLRVPQDFFDANAYPKDDEFEQLSNLLNLPTRVIVVWFQNARQKARK [L14P]: the abundance fitness is -0.832 ± 0.19.
On the same count and under the same terms, in the case of SSRTRFTDYQLRVLLDFFDANAYPKDDEFEQLSNLLNLPTRVIVVWFQNARQKARK [Q15L] it was -0.079 ± 0.095.
As for SSRTRFTDYQLRVLMDFFDANAYPKDDEFEQLSNLLNLPTRVIVVWFQNARQKARK [Q15M], the abundance fitness was -0.155 ± 0.13.
Still for that read-out and setting: then SSRTRFTDYQLRVLQDFFDANAYPKDDEFEALSNLLNLPTRVIVVWFQNARQKARK [Q31A], with -0.192 ± 0.12; and SSRTRFTDYQLRVLQDFFDANAYPKDDEFENLSNLLNLPTRVIVVWFQNARQKARK [Q31N], with 0.366 ± 0.27.
Same read-out and setting: in the case of SSRTRFTDYQLRVLQDFFDANAYPKDDEFEKLSNLLNLPTRVIVVWFQNARQKARK [Q31K] it was 0.022 ± 0.13.
The same measure, in the same setting: then SSRTRFTDYQLRVLQDFFDANAYPKDDEFEMLSNLLNLPTRVIVVWFQNARQKARK [Q31M], with -0.146 ± 0.12.
Turning to SSRTRFTDYQLRVLQDFFDANAYPKDDEFEELSNLLNLPTRVIVVWFQNARQKARK [Q31E], the abundance fitness is -0.066 ± 0.13.
For the variant SSRTRFTDYQLRVLQDFFDANAYPKDDEFERLSNLLNLPTRVIVVWFQNARQKARK [Q31R], the abundance fitness is -0.007 ± 0.087.
As for SSRTRFTDYQLRVLQDFFDANAYPKDDEFEDLSNLLNLPTRVIVVWFQNARQKARK [Q31D], the abundance fitness was -0.193 ± 0.39.
Regarding SSRTRFTDYQLRVLQDFFDANAYTKDDEFEQLSNLLNLPTRVIVVWFQNARQKARK [P24T], the abundance fitness is -0.856 ± 0.35.
Regarding SSRTRFTDYQLRVLQDFFDANAYFKDDEFEQLSNLLNLPTRVIVVWFQNARQKARK [P24F], the abundance fitness is -0.533 ± 0.37.
Turning to SSRTRFTDYQLRVLQDFFDANAYPKDDESEQLSNLLNLPTRVIVVWFQNARQKARK [F29S], the abundance fitness is -0.423 ± 0.082.

The next series covers variants of B2. Described as above. Conditions: Homo sapiens.
Turning to DSIMKVYCQICRKGDNEELLLLCDGCDKGCHTYCHRPKITTIPDGDWFCPACIAKA [K1D], the abundance fitness was -0.199 ± 0.2.
MSIMKVYCQICRKGDNEELLLLCDGCDKGCHTYCHRPKITTIPDGDWFCPACIAKA [K1M]: the abundance fitness was -0.157 ± 0.14.
For the variant LSIMKVYCQICRKGDNEELLLLCDGCDKGCHTYCHRPKITTIPDGDWFCPACIAKA [K1L], the abundance fitness is -0.693 ± 0.38.
For the variant ESIMKVYCQICRKGDNEELLLLCDGCDKGCHTYCHRPKITTIPDGDWFCPACIAKA [K1E], the abundance fitness is -0.035 ± 0.12.
For CSIMKVYCQICRKGDNEELLLLCDGCDKGCHTYCHRPKITTIPDGDWFCPACIAKA [K1C], the abundance fitness is -0.279 ± 0.19.
The same measure, in the same setting: in the case of ISIMKVYCQICRKGDNEELLLLCDGCDKGCHTYCHRPKITTIPDGDWFCPACIAKA [K1I] it was -0.262 ± 0.2.
Same read-out and setting: then ASIMKVYCQICRKGDNEELLLLCDGCDKGCHTYCHRPKITTIPDGDWFCPACIAKA [K1A], with -0.398 ± 0.35.
Same read-out and setting: in the case of FSIMKVYCQICRKGDNEELLLLCDGCDKGCHTYCHRPKITTIPDGDWFCPACIAKA [K1F] it was -0.783 ± 0.4.
